In the supplement of paper PMC10126150:
± gives the standard deviation of the averaged measurements.

The sequences below were run on ATP (assay: switch fluorescence ratio, 500 uM ATP over buffer (Cy3 cluster intensity, sum of 5 cycles each) (fold (ratio)); higher = stronger signal-on switching upon ATP binding; sequences stand for … in TCGTCGGCAGCGTCAGATGTGTATAAGAGACAGTTTTTTTTTTTTTTTTTTTTTTTTT…TC). Conditions: aptamer strand: ATP DNA aptamer (quencher-CACCTGGGGGAGTATTGCGGAGGAAGG + anchor), 100 nM annealed; ATP concentration: 500 uM.
In short: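 Imaging in selection buffer was followed by imaging after 15 min with 500 uM ATP at 22 °C, for Cy3-labelled switching-strand clusters annealed to 100 nM quencher-labelled ATP aptamer on a modified Illumina MiSeq flow-cell. Five of these buffer/ATP cycles ran, separated by NaOH stripping and re-annealing. The fluorescence ratio per cluster is summed target-cycle over summed buffer-cycle Cy3 intensity, averaged per switch-domain sequence; clusters outside 100-1000 RFU were removed.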
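Further: ATP exposure 15 min at 22 °C before imaging.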

Row | Sequence | switch fluorescence ratio
1 | ATGTTACGTT | 1.02 ± 0.021
2 | TGGGAACTCG | 0.99483 ± 0.00048
3 | CGCAGAGTGG | 1.01 ± 0.018
4 | AAAATCTTGT | 1.04 ± 0.0066
5 | CGGGGAAATG | 0.997 ± 0.023
6 | AACATGCGCA | 0.9712 ± 0.0047
7 | GGGGGCGTTA | 1.02 ± 0.026
8 | ATTGTCGCCG | 1.02 ± 0.043
9 | TGGGGACGAC | 1.02 ± 0.063
10 | GTTTTTAATT | 0.95322 ± 0.0005
11 | GTTGTAGATG | 1.005 ± 0.0058
12 | CGGGGCGGAT | 1.04 ± 0.016
13 | AAGGTAGTGT | 0.989 ± 0.028
14 | GGACTTTTGT | 0.984 ± 0.02
15 | AGGGGGTCGG | 1.01 ± 0.03
16 | GTGTGGTATA | 0.982 ± 0.012
17 | TTTCGTGCTT | 1.02 ± 0.032
18 | AGGCATATAG | 1.09 ± 0.077
19 | GCCTGATACA | 1.02 ± 0.031
20 | GTTAATGGAA | 0.986 ± 0.039
21 | CTCTAGCCTC | 1.176 ± 0.0012
22 | TTGAGGCCGG | 1.038 ± 0.0038
23 | TTGTGGTGAC | 0.9866 ± 0.0012

Row | Sequence | switch fluorescence ratio
24 | TTATGGCCTA | 1.01 ± 0.017
25 | ATTAAAGGGC | 0.992 ± 0.013
26 | GCAAAGAGGG | 1.04 ± 0.012
27 | GATTTTCCTT | 1.01 ± 0.027
28 | ATTGGGGCGG | 0.9842 ± 0.0054
29 | GTCTATATTT | 1 ± 0.044
30 | ATAAGCACTT | 1.22 ± 0.027
31 | AAGAAAAGGA | 1.02 ± 0.017
32 | ACGACCGGGT | 1.2 ± 0.037
33 | TTTCTTAGTG | 0.9622 ± 0.0086
34 | CGTGATCAGC | 1.017 ± 0.0098
35 | ATGAGGGTTT | 1.01 ± 0.017
36 | CCAGGGTTTT | 1.06 ± 0.1
37 | TACTCCGGTT | 2.02 ± 0.19
38 | TATTTGAAAG | 1 ± 0.04
39 | ATCAAGGGTG | 1.11 ± 0.013
40 | CGGGAAGCTT | 1 ± 0.082
41 | AGCTTGTGTG | 1.01 ± 0.061
42 | CAGGGATTTA | 0.978 ± 0.024
43 | CTCCCACACG | 2.35 ± 0.36
44 | TAAGTAAAAT | 0.9968 ± 0.0089
45 | GCATTTGAAG | 0.953 ± 0.05
46 | TGGGTGGCGG | 0.945 ± 0.052

Row | Sequence | switch fluorescence ratio
47 | CGAGAAGTTC | 1.02 ± 0.091
48 | GTTTGAATTG | 0.9879 ± 0.0049
49 | TATTTCGGGG | 1.02 ± 0.023
50 | CTTTTAGGGG | 1.01 ± 0.012
51 | AGCTACACGT | 1.05 ± 0.014
52 | TTTGTTTTTC | 1.02 ± 0.013
53 | AAAGGTTTTG | 1 ± 0.02
54 | GGGGAGAGAC | 1.04 ± 0.041
55 | ATGAAGGGTT | 1 ± 0.029
56 | AGTTTGTTGT | 1.06 ± 0.095
57 | TTTCGATGTT | 0.95 ± 0.051
58 | AAGTGATGGG | 0.988 ± 0.045
59 | ACAGGGAGTA | 0.9864 ± 0.003
60 | ATAGGGAAGT | 1 ± 0.017
61 | ACTAAGGGGT | 1.05 ± 0.016
62 | GTGTGTGGAC | 1.01 ± 0.026
63 | TATTGTTTCG | 1.02 ± 0.029
64 | GATGACGTCC | 1.04 ± 0.069
65 | GCTGGTTAGG | 1 ± 0.032
66 | TTTAGATCTT | 0.981 ± 0.012
67 | AAAGGGTACT | 1.08 ± 0.064
68 | GGGGTCAACG | 0.963 ± 0.035
69 | GGGATTGCTA | 1.03 ± 0.012

Row | Sequence | switch fluorescence ratio
70 | CAGCTCATGC | 1.0792 ± 0.00059
71 | GCTCGGCCCG | 1.04 ± 0.061
72 | ATGGGTGAAG | 0.9848 ± 0.0096
73 | CGTGTATTGG | 0.987 ± 0.013
74 | TCTAGTGTCG | 1.03 ± 0.11
75 | GATTATTGCT | 0.988 ± 0.037
76 | GGGCCGCGCT | 0.942 ± 0.039
77 | AGGTATGCAG | 0.9983 ± 0.0044
78 | GAAATACTCT | 1.44 ± 0.12
79 | GGGCAAGAGT | 1.03 ± 0.024
80 | AGCTGATACG | 1.31 ± 0.0078
81 | GATTGAAAGC | 0.962 ± 0.045
82 | CAGCGTTCAC | 1.054 ± 0.0092
83 | GCTGGTTCTG | 0.982 ± 0.054
84 | GAGTCAACGG | 1.027 ± 0.0071
85 | TGAGTTAGAT | 1 ± 0.011
86 | GGGAAAGGGC | 0.961 ± 0.021
87 | TAAGTCCCCA | 1.01 ± 0.052
88 | CGTGGGATAA | 1.01 ± 0.023
89 | TTCTGATGGA | 0.978 ± 0.036
90 | TGGCTTTTAT | 0.95149 ± 0.00041
91 | GATAAGGGTG | 1.07 ± 0.0053
92 | ATATATGCGG | 1.11 ± 0.12

Row | Sequence | switch fluorescence ratio
93 | TTCAAGTTTT | 1.02 ± 0.063
94 | AGAAGATTGT | 0.989 ± 0.013
95 | GCTTTAGAGA | 0.985 ± 0.019
96 | TGGGAATTCC | 1 ± 0.011
97 | TTTTCCAGGG | 1.22 ± 0.18
98 | ACAGGGCGGG | 1.01 ± 0.035
99 | TACGATAGGG | 1.21 ± 0.16
100 | CCCGAAGGTA | 1.01 ± 0.024
101 | TTTTTTCGGG | 0.993 ± 0.023
102 | ATGGTTTGAG | 0.997 ± 0.026
103 | CACGGCGTAG | 1.02 ± 0.013
104 | TTGGGCTGGT | 0.962 ± 0.035
105 | AGGGGGAGGC | 1.01 ± 0.076
106 | CGCTTGGTAC | 3.39 ± 0.079
107 | TTAAAGTCTC | 0.946 ± 0.021
108 | GATTGGGTGG | 1 ± 0.017
109 | GAGATGCGAG | 0.963 ± 0.021
110 | GAGGAGGGGA | 1.01 ± 0.018
111 | TTTATAGTTT | 1.01 ± 0.026
112 | CGTGTGGGTT | 0.993 ± 0.011
113 | GACTGCGGAA | 2.04 ± 0.038
114 | TCAGGCAGGC | 0.936 ± 0.052
115 | GTAGGCAAGA | 1.03 ± 0.071

Row | Sequence | switch fluorescence ratio
116 | TTGTTTATAG | 0.985 ± 0.03
117 | GAAAGATACC | 1.03 ± 0.043
118 | CGGTTTAATA | 1.03 ± 0.07
119 | CGAATATTGA | 0.959 ± 0.038
120 | ACGTCCGTTT | 1.04 ± 0.019
121 | ATATATAAGT | 0.972 ± 0.011
122 | TATTATCTTT | 1.01 ± 0.024
123 | CAGGGGCTTT | 1.04 ± 0.0067
124 | TTTTACTCCG | 3.1 ± 1.9
125 | CGGGCGAGGA | 0.989 ± 0.029
126 | CAATTATCGC | 0.988 ± 0.028
127 | CTCGGCGCGC | 1.024 ± 0.0044
128 | TACCTGGGGG | 1.02 ± 0.03
129 | GATTGACCAT | 1.041 ± 0.0099
130 | TTGTGCGTGG | 0.971 ± 0.015
131 | AAAGGTTTCG | 0.989 ± 0.015
132 | CTGTGGATGG | 1.01 ± 0.041
133 | AGTTGCGATG | 0.985 ± 0.014
134 | TGTTTGGTGT | 0.9948 ± 0.005
135 | AGTCTATCTG | 0.964 ± 0.03
136 | GTTTCAGGGA | 1.01 ± 0.013
137 | TTAGGAACTC | 0.982 ± 0.014
138 | AGTAGGGGT | 1.02 ± 0.054

Row | Sequence | switch fluorescence ratio
139 | CCCCGTGTAT | 2.48 ± 0.046
140 | TTGAAGTCGT | 0.988 ± 0.02
141 | TACGGCTGGT | 1.008 ± 0.0031
142 | TTACTTGGCT | 1.01 ± 0.032
143 | CGGTAGAGGT | 1.01 ± 0.016
144 | AAAGGATGTT | 0.995 ± 0.041
145 | ATGTGGGAGG | 1 ± 0.016
146 | GTAAACGGTA | 1.08 ± 0.064
147 | CCCCGTAGTC | 4.6 ± 0.3
148 | TCGCGGTTCT | 1.11 ± 0.085
149 | GGTGAGCTAG | 0.9866 ± 0.0034
150 | ACCTTTTTCG | 1.07 ± 0.0096
151 | AGAAGGGGGA | 1.01 ± 0.039
152 | GAAAGTTCGA | 0.987 ± 0.01
153 | ACTTTGCGTT | 0.992 ± 0.011
154 | AAGGTTGTTG | 1 ± 0.012
155 | GGAGAATTAT | 0.991 ± 0.024
156 | ATATGGGTTT | 1.01 ± 0.033
157 | TTATAATTTG | 1.02 ± 0.032
